Assay results from US20180339042A1.

Columns and labels:
activated T cells = activated T cells (UniProt Q9Y5U5); assay: FACS binding, activated T cells; isotype control
[1] = target: human GITR, membrane bound (human) (UniProt Q9Y5U5); assay: cell-based or functional assay
human GITR, membrane bound (human), sequence (Q9Y5U5 26-241): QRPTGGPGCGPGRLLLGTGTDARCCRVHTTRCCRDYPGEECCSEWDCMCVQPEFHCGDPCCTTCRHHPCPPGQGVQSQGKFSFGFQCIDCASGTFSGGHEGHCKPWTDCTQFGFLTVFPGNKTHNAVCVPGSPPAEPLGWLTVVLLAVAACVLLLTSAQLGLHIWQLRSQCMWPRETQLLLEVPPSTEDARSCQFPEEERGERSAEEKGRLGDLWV

activated T cells, sequence (Q9Y5U5 26-241): as above

Substance | EC50 (activated T cells) | NFKB signaling (phospho-p65), CD4+ T cells, Emax (%) [1] | NFKB signaling (phospho-p65), CD8+ T cells, Emax (%) [1]
unrelated hIgG2 | 6.72 nM |  | 
unrelated hIgG1 | 132 nM |  | 
hIgG1 Isotype Control (antibody) |  | 4% | 6%
